Measurements from the DeepSol protein solubility set.

Assay: soluble on expression in E. coli; label from the status in PepcDB or PDB records
In the case of “MGHHHHHHSHMASPSKAVIVPGNGGGDVTTHGWYGWVKKELEKIPGFQCLAKNMPDPITARESIWLPFMETELHCDEKTIIIGHSSGAIAAMRYAETHRVYAIVLVSAYTSDLGDENERASGYFTRPWQWEKIKANCPYIVQFGSTDDPFLPWKEQQEVADRLETKLHKFTDCGHFQNTEFHELITVVKSLLKVPA”, the “soluble on expression in E. coli” value is reported as “not soluble”. With “MGHHHHHHSHMCGKFTLFSEFDDIIEQFNIDQFLPEGEYHPSYNVAPSQNILTIINDGSNNRLGKLRWGLIPPCAKDEKIGYKMINARAETLAEKPSFRKPLGSKRCIIPADSFYEWKRLDPKTKIPMRIKLKSSNLFAFAGLYEKWNTLEGNLLYTCTIITIKPSELMEDIHDRMPVILTDENKKEWLNPKNTDPDYLQSLLLPYDADDMEAYQVSSLVNSPELIESH” the “soluble on expression in E. coli” value was “soluble”. In the case of “MGHHHHHHSHMDTPENVLQMLEAHMQSYKGNDPLGEWERYIQWVEENFPENKEYLITLLEHLMKEFLDKKKYHNDPRFISYCLKFAEYNSDLHQFFEFLYNHGIGTLSSPLYIAWAGHLEAQGELQHASAVLQRGIQNQAEPREFLQQQYRLFQTRLTETHLPAQAR”, the “soluble on expression in E. coli” value is reported as “not soluble”. For “MGHHHHHHSHMEFRSVAERICGDIVLSENSGEALRKWRSIFNASQSDLARKLGISPSVISDYESGRRKPGTAFLKKFVCALIELDGERGYQVLSKYRYFLESDHKAVLDIAEYQKTAEPSEFCEVIEGKMLTHFDKAIHGHTVIDSINAILSLNAFDFYRLYGLTSERALIFTRVSTGRSPMVAVRVSNLKPSAVVLHGLEAERVDEMAKKIAEIERIPLVVTEIAIGEIVKRLRRKFA”, the “soluble on expression in E. coli” value was “not soluble”. For “MGHHHHHHSHMEPEAFEICPYDPHHRIPLSRFQYHLASCRRKNPKKAKKMATCKYNACHVVPIKNLEEHEAVCVNRSAVEEEDTENPLKVSPPSSEQNDDTQQVSPCLPSPDIWNVDGANCQHVFVLKTFFPQKVVCENDTKESARETSPQKILRPGQ”, the “soluble on expression in E. coli” value was “not soluble”. For “MGHHHHHHSHMEQFEVIKQQKEIIEHGIELFNKKPKRGIQFLQEQGMLGTSVEDIAQFLHQEERLDSTQVGDFLGDSARFNKEVMYAYVDQLDFCEKEFVSALRTFLEGFRLPGEAQKIDRLMEKFAARYIECNQGQTLFASADTAYVLAYSIIMLTTDLHSPQVKNKMTKEQYIKMNRGINDSKDLPEEYLSSIYEEIEGKKIAMKETKELT”, the “soluble on expression in E. coli” value was “soluble”. With “MGHHHHHHSHMFLQYYLNEQGDRVYTLKKFDPMGQQTCSAHPARFSPDDKYSRHRITIKKRFKVLMTQQPRPVL” the “soluble on expression in E. coli” value was “not soluble”. For “MGHHHHHHSHMGFYLGITALKSIGNNKNNNIDNENNHQAKILTFPVSFTCRTFLPARGDILQGTVKKVLWNGAFIRSGPLRYAYLSLLKMPHYHYVHSPLSEDEKPHFQKDDLSKIAVGVVVRFQVLAVRFKERPHKRRNDYYVLATLEGNGSFGP”, the “soluble on expression in E. coli” value was “soluble”. For “MGHHHHHHSHMGRCYNNIVIDASIEAVWQQIGNFHDMSWAKGVITSLVKVGPASGTEVGAKRILNDAIHETLVSLDSSNYTFTYSIDDGPDAIAKSAVDNYLGMVNLSESSTGVLVEWSSSFTSDNEKAVTEFCDP”, the “soluble on expression in E. coli” value was “not soluble”. For “MGHHHHHHSHMGVAGTPGLPESPDKSPVGRKKSKGLATRLSRRRVSCRELGRPDCDGWLLLRKAPGGFMGPRWRRRWFVLKGHTLYWYRQPQDEKAEGLINVSNYSLESGHDQKKKYVFQLTHDVYKPFIFAADTLTDLSMWVRHLITCISKYQSP”, the “soluble on expression in E. coli” value was “soluble”. In the case of “MGHHHHHHSHMKALSPVRGCYEAVCCLSERSLAIARGRGKGPAAEEPLSLLDDMNHCYSRLRELVPGVPRGTQLSQVEILQRVIDYILDLQVVLAEPAPGPPDGPHLPIQTAELAPELVISNDKRSFCH”, the “soluble on expression in E. coli” value is reported as “not soluble”. With “MGHHHHHHSHMKESAHLAISWLRSNAKKYQLTNAFGSFDLLDNTDIHLHFPAGAVTKDGPSAGVTIVTCLASLFSGRLVRSDVAMTGEITLRGLVLPVGGIKDKVLAAHRAGLKQVIIPRRNEKDLEGIPGNVRQDLSFVTASCLDEVLNAAFDGGFTVKTRPGLLNSKL” the “soluble on expression in E. coli” value was “not soluble”. For “MGHHHHHHSHMKIFKFTPENNLFYGYILEDMKTGFNILREIMVEGYRPSIARLYDAEDGTQHFTHFADGKCVLIFMAEGNPRIAKVTGEGIAEIVARYPQCQRVDSKLIETWFNNLNWGPDKVAAERVQILKTGNMGFTTEVSGCWSCIHEIYESVINRIRTEFPHADDITMLGGHSSHSYQNGTNMYFVYDYNVVDCKPEEEIDKYHNPLNKIICEETIRLGGSMVHHHGIGKHRVHWSKLEHGSAWALLEGLKKQFDPNGIMNTGTIYPIEK”, the “soluble on expression in E. coli” value was “not soluble”. With “MGHHHHHHSHMKNLINWFEIPVTDMARAIAFYEQVMQISLRRETMDGADLAVFPYAEPGPGGALIKQDDVAPVAQGVVIYLHTADLLASIERVVLAGGKCVLEPMVPGDDIGTIALFIDSEGNRIGLHQPA” the “soluble on expression in E. coli” value was “soluble”. For “MGHHHHHHSHMKQKLLVTLLGLSALGASPVFAANTNVDLAEDAYIYGYSIDEAYKFFYHTAVENNYPLNRFQNIRALADDSYTAHPTINNDTLHLMGWLDVAAEPVIVSVPDMDEGRYWILHTMDMGHYTNAAFSSRTRGTKGGQFMFAAQDWQGEVPASVDEVVRVDSNLVKLMGRIMAVNDEDAKVALNYMDQWNIRTLSEYLGKNGPKPVQRTYPDPKKSTWLERVNFVLCDGSMGNADKQWLDKYQSIGVEPCKTDFTPEQLKLAKVGEKKGMEHLVELAPKMTDARTLLGTRDTLGDAPRDIFAEGTYLGQWGLPPIEASYRKSDFDSIGQKLDGSKHDYVMRFKAPNVSEFWSVTIYGNDNRLMAKNDLNRHSRGDRTMKADKDGYYTIYMSANEKGRADDPNFLPVPEKPFYAIMRFYGADDAIQSGEYQMPEIKVVK”, the “soluble on expression in E. coli” value was “soluble”. With “MGHHHHHHSHMLLPRGLDIKQEELGDLVDKEMAATSAAIETATARIEEMLSKSRAGDTGVKLEVNERILGCCTSLMQAIQVLIVASKDLQREIVESGRGTASPKEFYAKNSRWTEGLISASKAVGWGATVMVDAADLVVQGRGKFEELMVCSHEIAASTAQLVAASKVKADKDSPNLAQLQQASRGVNQATAGVVASTISGKSQIEETDNMDFSSMTLTQI” the “soluble on expression in E. coli” value was “soluble”. With “MGHHHHHHSHMMQESGTETKSNGSAIQNGSGGSNHLLECGGLREGRSNGETPAVDIGAADLAHAQQQQQQWHLINHQPSRSPSSWLKRLISSPWELEVLQVPLWGAVAETKMSGPVCQPNPSPF” the “soluble on expression in E. coli” value was “not soluble”. In the case of “MGHHHHHHSHMPFKLFKKLTISSVVTSATVNWATLASRTVFILPKRVLPYLRSVARLTRVVIAMDRYGGLLGGFLRAVPPVQKPLSLTDGNKFREGIMSEVGKYVSTLVDPRNMMLDSFHHLKHNKSLQGSFLVHAGTVSDQEVCGTPMFCYKDGLSNPEIDRLLTPISLTRLTVPNNENSDVFRIGNIIYSEDSGLFDIIPTLRTRLMERNLHEGLVFVGPLIKNINSSFVNKITTAIKGDTVLNESLSHGLVLKLPVEQFMDFETTNTFHYTGRLPMTHRSYIYYALGYVITADGTQSLLQKFFRTPIEGPEFTRLVRDYFAGEIRNFFLGDNDFGQGNFLMFGAVCRCGYFPEDSLLTRTRVSIKGGGLSLIEIPDFTVSRGPWQFI”, the “soluble on expression in E. coli” value is reported as “not soluble”. With “MGHHHHHHSHMPKNQEDSEEKGEKDEQTAKFLHKLAENGKDRGLPDCVVAQYEKNAWEATNSDEKYKSCEKCGMPPPPPIDGAKNSVVEEVCKNCETINEKPIGIESQILEKRRNEEILKRKEERKSLKRSAEESVTNSAPEKIQKKVHVKIMPRKCAPQILRRSLVPPPILTPKSAKKKLKLAENKEPDFLKALLNVTGNPV” the “soluble on expression in E. coli” value was “not soluble”. In the case of “MGHHHHHHSHMPKVYGSLIDTETRCRHYFTEEDIIAIKFKCCNKYYPCYKCHNEFEKHAIKRWSEPSFNEKAILCGVCKHELTINEYMMVERCPNCQSRFNNRCKYHYHIYFEI”, the “soluble on expression in E. coli” value is reported as “soluble”. For “MGHHHHHHSHMRDCCGMVSSGSLSSLKAAERTPGALFFSSSTPGRYYNYDSSSRPQSRSVMSDQCAGQWFLKACGLGEGDTEVFPTQHVVRALQTIFELNVQAFAGGAMGAVNGMQPHGVPDKSSVQSDEVWVGVVYGLAATMIQEVMHSFSHLSTICILAQKTSSTTKFLQGITQCHLVRL”, the “soluble on expression in E. coli” value was “not soluble”. For “MGHHHHHHSHMRLSQKWQVINQRSLLCGEDEAADENPESQEMLEEQLVRMLTREVMDLITVCCVSKKGADHSSAPPADGDDEEMMATEVTPSAMAELTDLGKCLMKHEDVCTALLITAFNSLAWKDTLSCQRTTSQLCWPLLKQVLSGTLLADAVTWLFTSVLKGLQMHGQHDGCMASLVHLAFQIYEALRPRYLEIRAVMEQIPEIQKDSLDQFDCKLLNPSLQKVADKRRKDQFERLIAGCIGKPLGEQFRKEVHIKNLPSLFKKTKPMLETEVLDNDGGGLATIFEP”, the “soluble on expression in E. coli” value was “not soluble”. With “MGHHHHHHSHMSNWLEHSVQVEVEAPIDLVWGLWADLEQMPNWMKWIDSVKVPPENPDLSLWKLNTGGLEFTWKSRITKVITNQIIQWESIDGLPNQGAIRFYDRHGHSIVKMTISYAIPGFLGKIMDNLFLG” the “soluble on expression in E. coli” value was “not soluble”. With “MGHHHHHHSHMSQPPLLPASAETRKFTRALSKPGTAAELRQSVSEVVRGSVLLAKPKLIEPLDYENVIVQKKTQILNDCLREMLLFPYDDFQTAILRRQGRYICSTVPAKAEEEAQSLFVTECIKTYNSDWHLVNYKYEDYSGEFRQLPNKVVKLDKLP” the “soluble on expression in E. coli” value was “not soluble”. In the case of “MGHHHHHHSHMTLVLSMNRFCEPIVSEGAAEIAGYQTLWEADSYGGPSPPGPAQAPLQGDRGAGPPLAGSHYRGISNPITTSKITYFKRKYVEEEDFHPPLSSCSHKEQSRGQLVEDMTIKRHQLRNKYKTRIQGFLCDAARFLYPSNKCICDRLKNDD”, the “soluble on expression in E. coli” value is reported as “not soluble”. For “MGHHHHHHSHNDGRIMGFVSRSQERRLLKKTMSGTFLLRFSESSEGGITCSWVEHQDDDKVLIYSVQPYTKEVLQSLPLTEIIRHYQLLTEENIPENPLRFLYPRIPRDEAFGCYYQEKVNLQERRKYLKHRLIVVSNRQVDELQQPLELKPEPELESLELELGLVPEPELSLDLEPLLKAGLDLGPELESVLESTLEPVIEPTLCMVS”, the “soluble on expression in E. coli” value was “soluble”. For “MGHQNAAVSENQNHDDGAASSPGFKLVGFSKFVRKNPKSDKFKVKRFHHIEFWCGDATNVARRFSWGLGMRFSAKSDLSTGNMVHASYLLTSGDLRFLFTAPYSPSLSAGEIKPTTTASIPSFDHGSCRSFFSSHGLGVRAVAIEVEDAESAFSISVANGAIPSSPPIVLNEAVTIAEVKLYGDVVLRYVSYKAEDTEKSEFLPGFERVEDASSFPLDYGIRRLDHAVGNVPELGPALTYVAGFTGFHQFAEFTADDVGTAESGLNSAVLASNDEMVLLPINEPVHGTKRKSQIQTYLEHNEGAGLQHLALMSEDIFRTLREMRKRSSIGGFDFMPSPPPTYYQNLKKRVGDVLSDDQIKECEELGILVDRDDQGTLLQIFTKPLGDRPTIFIEIIQRVGCMMKDEEGKAYQSGGCGGFGKGNFSELFKSIEEYEKTLEAKQLVG”, the “soluble on expression in E. coli” value was “soluble”. For “MGHVSNSPFSVDVLVVGGGPAGSAAAIHAAKAGYSVLLIDAQPFPRDKTCGDGLTPRAVHQLEALGVDVTSRYRSFGLKLHGFGGSVTVPWPESHFGQVSSAMPRMKFDAMLWEMAAQHATTWTATASEVEIDSAIRSVTMSDGRVVKPRSVIVADGVRSTFGKLLGRTWHRGEVYGIAARSYCTTPRSTEPWMHSHLELRDDSTTLPGYGWIFPIGDGTANVGCGALSTDKRPAKINTKKLLRHYASQQTDWEFGTPQRVASALLPMGGAVSTIAGPNWMLIGDAAACVNPLNGEGIDYGLETAALAVAHLDNPLEWPHILRETYGEAFLLARTAARLLTYPQFLPLTGPIALRTPLMASAARLMGNLVTEEDKDIVARAWRAAGWGVTKIRGGSPLWDLEHHHHHH”, the “soluble on expression in E. coli” value was “not soluble”.
